Results published in US20180217151A1 (MILTENYI BIOTEC, published 2018).
Positions count from the first letter of the chain named. Values belong to the binder of their own block, whether it stands above or below them.

Legend:
Test in all cases: SPR (Biacore), recombinant antigen (extracellular domain) immobilized by amine coupling, Fab as analyte, 1:1 binding mass transfer model
recombinant CD3 antigen = recombinant CD3 antigen ( (the Fab labels human PBMCs))
Experimental: (§1) FIGS. 7A and 7B show surface plasmon resonance sensorgrams of anti-CD25 rFabs using immobilized recombinant CD25 antigen. At t 110 sec, different concentrations of Fab were injected for 180 sec. At t 290 sec, the dissociation phase started.
(§2) The Fab variants of example 1 and 4 were analyzed by surface plasmon resonance spectroscopy (Biacore™). Therefore, the specific recombinant antigen (extracellular domain, expressed in mammalian cells) for a Fab was immobilized on a CMS chip by standard amine coupling. The Fab variants were used as analytes in HBS-EP buffer (0.01 M HEPES pH 7.4, 0.15 M NaCl, 3 mM EDTA, 0.005% v/v Surfactant P20) in a concentration of up to 2 μM Fab. Evaluation was conducted with the Biacore™ X-100 Evaluation Software using an 1:1 binding mass transfer model.

recombinant CD25 antigen = molecular target: T1, recombinant CD25 antigen ( (the Fab labels human PBMCs), UniProt P01589)
T1 construct: extracellular domain; also called immobilized recombinant CD25 antigen; CD25, recombinant extracellular domain
T1 sequence (antigen, looked up): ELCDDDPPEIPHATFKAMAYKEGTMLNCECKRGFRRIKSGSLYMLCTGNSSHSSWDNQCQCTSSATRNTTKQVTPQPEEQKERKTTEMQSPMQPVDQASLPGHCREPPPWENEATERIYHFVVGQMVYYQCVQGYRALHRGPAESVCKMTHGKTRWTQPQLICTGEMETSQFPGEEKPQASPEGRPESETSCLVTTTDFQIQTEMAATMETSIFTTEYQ
Experimental: as §1, §2

recombinant CD28 antigen = molecular target: T2, recombinant CD28 antigen ( (the Fab labels human PBMCs), UniProt P10747)
T2 construct: extracellular domain; also called CD28, recombinant extracellular domain
Experimental: as §1, §2

[1] = molecular target: T3, recombinant CD45RA antigen ( (the Fab labels human PBMCs))
T3 construct: extracellular domain; also called CD45RA, recombinant extracellular domain
Experimental: as §1, §2

recombinant CD4 antigen = molecular target: T4, recombinant CD4 antigen ( (the Fab labels human PBMCs), UniProt P01730)
T4 construct: extracellular domain; also called CD4, recombinant extracellular domain
Experimental: as §1, §2

Chain of recombinant CD3 antigen ( (the Fab labels human PBMCs)) (chain, as listed by the source): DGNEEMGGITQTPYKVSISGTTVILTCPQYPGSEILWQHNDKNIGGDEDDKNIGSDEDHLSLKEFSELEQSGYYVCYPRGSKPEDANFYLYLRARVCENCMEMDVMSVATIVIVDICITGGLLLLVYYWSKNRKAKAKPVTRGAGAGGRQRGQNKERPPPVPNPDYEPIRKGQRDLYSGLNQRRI

B2: RFT5 rFab (Fab, V domains shown)
VH: EVQLQQSGTVLARPGASVKMSCKASGYSFTRYWMHWIKQRPGQGLEWIGAIYPGNSDTSYNQKFEGKAKLTAVTSASTAYMELSSLTHEDSAVYYCSRDYGYYFDFWGQGTTLTVSS
VL: QIVLTQSPAIMSASPGEKVTMTCSASSSISYMQWYQQKPGTSPKRWIYDTSKLASGVPARFSGSGSGTSYSLTISSMEAEDAATYYCHQRSSYTFGGGTKLEIKR
modifications: For the cell assay: biotin (thiol-reactive reagent) on cysteine(s) of the reduced disulfide bridge, position not stated
notes: Recombinant Fab from E. coli; heavy chain optionally followed by a poly-histidine tag; Biotinylated for the cell assay; also called anti-CD25 rFab (based on clone RFT5)
Kd (recombinant CD25 antigen): 0.2 nM | koff (recombinant CD25 antigen): 0.00038 s⁻¹ | kon (recombinant CD25 antigen): 1.9e+06 M⁻¹ s⁻¹

B4: 15E8-hum rFab (Fab, V domains shown)
VH: QVQLQESGPGLVKPSETLSLTCTVSGFSLTSYGVHWIRQPPGKGLEWLGVIWAGGSTNYNSSLKSRVTISKDTSKNQVSLKLSSVTAADTAVYYCARDKRAPGKLYYGYPDYWGQGTTLTVSS
VL: DIVMTQSPDSLAVSLGERATINCRASESVEYYVTSLMQWYQQKPGQPPKLLIYAASNVESGVPARFSGSGSGTDFTLTISPLQAEDVAVYYCQQTRKVPSTFGGGTKLEIKR
modifications: For the cell assay: biotin (thiol-reactive reagent) on cysteine(s) of the reduced disulfide bridge, position not stated
notes: Recombinant Fab from E. coli; heavy chain optionally followed by a poly-histidine tag; Biotinylated for the cell assay; also called humanized variant of anti-CD28 clone 15E8
Kd (recombinant CD28 antigen): 21 nM | koff (recombinant CD28 antigen): 0.089 s⁻¹ | kon (recombinant CD28 antigen): 4.3e+06 M⁻¹ s⁻¹

B5: MEM56-LAV rFab (Fab, V domains shown)
VH: QVQLQQSGAELAKPGASVKMSCKASGYNFTRYWMHWIKQRPGQGLEWIGYINPNTGHTEYNQKFKDKATLTADKSSSTAYMQLSSLTSEDSAVYYCATYYYGSRRDAGQGTTLTVSS
VL: QIVLTQSPAIMSASLGERVTMTCTTSSSVSSSYLHWYQQKPGSSPKLWIYSTSNLASGVPARFSGSGSGTSYSLTISTVEAEDAATYYCHQYHRSPLTFGAGTKLELKR
modifications: In the cell assay the Fab was biotinylated with a thiol-reactive reagent (e.g. maleimide-PEO2-biotin) on cysteines of the reduced disulfide bridge; positions not stated.
notes: Recombinant Fab from E. coli; heavy chain optionally followed by a poly-histidine tag; Biotinylated for the cell assay; also called mutated variant of anti-CD45RA clone MEM56
Kd [1]: 1300 nM | koff [1]: 0.11 s⁻¹ | kon [1]: 88000 M⁻¹ s⁻¹

B6: 13B8.2-LAV rFab (Fab, V domains shown)
VH: QVQLKQSGPGLVQPSQSLSITCTVSGFSLTTFGVHWVRQSPGKGLEWLGVIWASGITDYNVPFMSRLSITKDNSKSQVFFKLNSLQPDDTAIYYCAKNDPGTGFAYWGQGTLVTVSA
VL: DIQMTQSPASLSASVGETVTFTCRASENIYSYLAWYQQKQGKSPQLLVHDAKTLAEGVPSRFSGGGSGTQFSLKINTLQPEDFGTYYCQHAYGNPPTFGGGTKLEIKR
modifications: For the cell assay: biotin (thiol-reactive reagent) on cysteine(s) of the reduced disulfide bridge, position not stated
notes: Recombinant Fab from E. coli; heavy chain optionally followed by a poly-histidine tag; Biotinylated for the cell assay; also called mutated variant of anti-CD4 clone 13B8.2
Kd (recombinant CD4 antigen): 15000 nM | koff (recombinant CD4 antigen): 0.006 s⁻¹ | kon (recombinant CD4 antigen): 410 M⁻¹ s⁻¹

The remaining lines, values ahead:

Kd (recombinant CD3 antigen): 46 nM | koff (recombinant CD3 antigen): 0.19 s⁻¹ | kon (recombinant CD3 antigen): 4.1e+06 M⁻¹ s⁻¹
B1: OKT3-hum rFab (Fab, V domains shown)
VH: QVQLVQSGGGVVQPGRSLRLSCKASGYTFTRYTMHWVRQAPGKGLEWIGYINPSRGYTNYNQKVKDRFTISRDNSKNTAFLQMDSLRPEDTGVYFCARYYDDHYSLDYWGQGTPVTVSS
VL: DIQMTQSPSSLSASVGDRVTITCSASSSVSYMNWYQQTPGKAPKRWIYDTSKLASGVPSRFSGSGSGTDYTFTISSLQPEDIATYYCQQWSSNPFTFGQGTKLQITR
modifications: For the cell assay: biotin (thiol-reactive reagent) on cysteine(s) of the reduced disulfide bridge, position not stated
notes: Recombinant Fab from E. coli; purified by IMAC; also called humanized variant of anti-CD3 clone OKT3; anti-CD3 rFab

Kd (recombinant CD25 antigen): 21 nM | koff (recombinant CD25 antigen): 0.21 s⁻¹ | kon (recombinant CD25 antigen): 1e+07 M⁻¹ s⁻¹
B3: RFT5-LAV rFab (Fab, V domains shown)
VH: B2 VH with H35A, W107A
VL: B2 VL
modifications: For the cell assay: biotin (thiol-reactive reagent) on cysteine(s) of the reduced disulfide bridge, position not stated
notes: Recombinant Fab from E. coli; heavy chain optionally followed by a poly-histidine tag; Biotinylated for the cell assay; also called mutated variant of anti-CD25 clone RFT5
